{
  "source": "patent US20230357438A1",
  "about": "(BIOSION, published 2023)",
  "binders": {"B1": {"name": "A5G9C2C7 (antibody, V domains shown)", "VH": "not shown", "VL": "DIQMTQSPSTLSASVGDRVTITCRASQNIYNWLAWYQQKPGKAPKLLIYKASSLESGVPSRFSGSGSGTEFTLTISSLQPDDFATYYCQQYNSNSRTFGQGTKVEIK", "notes": "Fully human antibody purified from hybridoma; not added here"}, "B2": {"name": "A2E12G12H7 (antibody, V domains shown)", "VH": "QVQLVQSGAEVKKPGASVKVSCKASGYTFTGYYIHWVRQAPGQGLEWMGWINPNSGSTNSAQKFQDWVTLTRDTSISTAYMELSRLKSDDTAVYYCARRADYYGSGNFYYFDYWGQGTLVTVSS", "VL": "DIQMTQSPSSVSASVGDRVTISCRASQSISRWLAWYQQKPGKAPKLLIYAATSLQSGVPSRFSGSGFVRDFTLTISSLQPEDFATYYCQQANTFPLIFGGGTKVEIK", "notes": "as for B1"}},
  "key": {"[1]": {"molecular_target": "T1, mutant human C5 (R885H)-his protein (Acro biosystems, Cat#CO5-H52Hx) (human, UniProt P01031 19-1676)", "T1 construct": "Bought protein; also called human C5 mutant; not shown: his tag", "test": "indirect ELISA on coated human C5 (R885H)-his (2 ug/ml), anti-human IgG Fc-HRP"}, "[2]": {"molecular_target": "T1, mutant human C5 (R885H)-his protein …", "test": "SPR (Biacore T200), antibody captured by anti-human IgG, C5 in flow, 1:1 fit"}, "[3]": {"molecular_target": "T2, recombinant human C5-his protein (Sino Biological Inc., Cat#13416-H18H) (human, UniProt P01031 19-1676)", "T2 construct": "Bought protein; also called wild type human C5; not shown: his tag", "test": "capture ELISA: antibody captured on goat anti-human IgG Fc, biotin-labeled human C5-his 0.99 nM, streptavidin-HRP"}, "[4]": {"molecular_target": "T3, cynomolgus monkey C5-his protein (Acro biosystems, Cat#CO5-C52Hx) (cynomolgus monkey, UniProt A0A2K5U1T1 19-1676)", "T3 construct": "Bought protein; also called Cynomolgus C5-his; cynomolgus C5; not shown: his tag", "test": "indirect ELISA on coated cynomolgus C5-his (1 ug/ml), anti-human IgG Fc-HRP"}, "[5]": {"molecular_target": "T3, cynomolgus monkey C5-his protein (Acro …)", "test": "SPR (Biacore T200), antibody captured by anti-human IgG, C5 in flow, 1:1 fit"}, "[6]": {"molecular_target": "T2, recombinant human C5-his protein (Sino …)", "test": "SPR (Biacore T200), antibody captured by anti-human IgG, C5 in flow, 1:1 fit"}, "[7]": {"molecular_target": "T2, recombinant human C5-his protein (Sino …)", "test": "competitive ELISA: antibody pre-mixed with biotin-labeled human C5-his 0.99 nM, added to coated Eculizumab; partial inhibition only"}, "[8]": {"molecular_target": "T1, mutant human C5 (R885H)-his protein …", "test": "indirect ELISA on coated human C5 (R885H)-his (2 ug/ml), anti-human IgG Fc-HRP", "remark": "listed apart in the source"}, "[9]": {"molecular_target": "T3, cynomolgus monkey C5-his protein (Acro …)", "test": "indirect ELISA on coated cynomolgus C5-his (1 ug/ml), anti-human IgG Fc-HRP", "remark": "listed apart in the source"}, "[10]": {"molecular_target": "T2, recombinant human C5-his protein (Sino …)", "test": "competitive ELISA: antibody pre-mixed with biotin-labeled human C5-his 0.99 nM, added to coated Eculizumab; partial inhibition only, value below the range tested"}, "[11]": {"molecular_target": "T2, recombinant human C5-his protein (Sino …)", "test": "capture ELISA: antibody captured on goat anti-human IgG Fc, biotin-labeled human C5-his 0.99 nM, streptavidin-HRP", "remark": "listed apart in the source"}},
  "note": "Where two headings read alike, the source gives them in different places.",
  "data": [
    {"binder": "B1", "values": [
      {"measurement": "EC50", "setting": "[1]", "result": 0.0853, "unit": "nM"},
      {"measurement": "Kd", "setting": "[2]", "result": 0.303, "unit": "nM"},
      {"measurement": "koff", "setting": "[2]", "result": 0.000153, "unit": "s⁻¹"},
      {"measurement": "kon", "setting": "[2]", "result": 505000, "unit": "M⁻¹ s⁻¹"},
      {"measurement": "EC50", "setting": "[3]", "result": 0.0277, "unit": "nM"},
      {"measurement": "EC50", "setting": "[4]", "result": 0.128, "unit": "nM"},
      {"measurement": "Kd", "setting": "[5]", "result": 1.58, "unit": "nM"},
      {"measurement": "koff", "setting": "[5]", "result": 0.000293, "unit": "s⁻¹"},
      {"measurement": "kon", "setting": "[5]", "result": 185000, "unit": "M⁻¹ s⁻¹"},
      {"measurement": "Kd", "setting": "[6]", "result": 0.262, "unit": "nM"},
      {"measurement": "koff", "setting": "[6]", "result": "3.47e-05", "unit": "s⁻¹"},
      {"measurement": "kon", "setting": "[6]", "result": 133000, "unit": "M⁻¹ s⁻¹"},
      {"measurement": "IC50", "setting": "[7]", "result": "~0.256", "unit": "nM"}
    ]},
    {"binder": "B2", "values": [
      {"measurement": "EC50", "setting": "[8]", "result": 0.0684, "unit": "nM"},
      {"measurement": "Kd", "setting": "[2]", "result": 1.32, "unit": "nM"},
      {"measurement": "koff", "setting": "[2]", "result": 0.000408, "unit": "s⁻¹"},
      {"measurement": "kon", "setting": "[2]", "result": 308000, "unit": "M⁻¹ s⁻¹"},
      {"measurement": "EC50", "setting": "[9]", "result": 0.127, "unit": "nM"},
      {"measurement": "Kd", "setting": "[5]", "result": 0.741, "unit": "nM"},
      {"measurement": "koff", "setting": "[5]", "result": 0.000267, "unit": "s⁻¹"},
      {"measurement": "kon", "setting": "[5]", "result": 360000, "unit": "M⁻¹ s⁻¹"},
      {"measurement": "Kd", "setting": "[6]", "result": 1.6, "unit": "nM"},
      {"measurement": "koff", "setting": "[6]", "result": 0.000186, "unit": "s⁻¹"},
      {"measurement": "kon", "setting": "[6]", "result": 117000, "unit": "M⁻¹ s⁻¹"},
      {"measurement": "IC50", "setting": "[10]", "result": "~1.53", "unit": "pM"},
      {"measurement": "EC50", "setting": "[11]", "result": 0.0418, "unit": "nM"}
    ]}
  ]
}
